Values of other authors in PMC3433420.
Where two headings read alike, the source gives them in different places.

Columns and labels:
Settings in all cases: cited from earlier work
[1] = target: GRB2 (Homo sapiens) (UniProt P62993)
[2] = target: ABL2 (Homo sapiens) (UniProt P42684)
[3] = target: ITK (Homo sapiens) (UniProt Q08881)
[4] = target: VAV2 (Homo sapiens) (UniProt P52735)
[5] = target: PIK3R3-N (Homo sapiens) (UniProt Q92569)
[6] = target: NCK2 (Homo sapiens) (UniProt O43639)
[7] = target: GRB2 (Homo sapiens) (UniProt P62993); remark: listed apart in the source
[8] = target: SHC1-PTB (Homo sapiens) (UniProt P29353)
[9] = target: PIK3R3-NC (Homo sapiens) (UniProt Q92569)
[10] = target: PIK3R2-N (Homo sapiens) (UniProt O00459)
[11] = target: SHC1-PTB (Homo sapiens) (UniProt P29353); remark: listed apart in the source
[12] = target: PIK3R1-NC (Homo sapiens) (UniProt P27986)
[13] = target: ZAP70-NC (Homo sapiens) (UniProt P43403)
[14] = target: ABL2 (Homo sapiens) (UniProt P42684); remark: listed apart in the source
[15] = target: PIK3R2-NC (Homo sapiens) (UniProt O00459)
[16] = target: RASA1-N (Homo sapiens) (UniProt P20936)
[17] = target: ABL2 (Homo sapiens) (UniProt P42684); remark: listed apart in the source
[18] = target: BLK (Homo sapiens) (UniProt P51451)
[19] = target: ABL2 (Homo sapiens) (UniProt P42684); remark: listed apart in the source
[20] = target: SRC (Homo sapiens) (UniProt P12931)
[21] = target: PIK3R3-N (Homo sapiens) (UniProt Q92569); remark: listed apart in the source
[22] = target: GRB7 (Homo sapiens) (UniProt Q14451)
[23] = target: PIK3R3-NC (Homo sapiens) (UniProt Q92569); remark: listed apart in the source
[24] = target: SYK-NC (Homo sapiens) (UniProt P43405)
[25] = target: ABL1 (Homo sapiens) (UniProt P00519)
[26] = target: YES1 (Homo sapiens) (UniProt P07947)
[27] = target: VAV2 (Homo sapiens) (UniProt P52735); remark: listed apart in the source
[28] = target: SYK-C (Homo sapiens) (UniProt P43405)
[29] = target: PIK3R1-NC (Homo sapiens) (UniProt P27986); remark: listed apart in the source
[30] = target: GRB2 (Homo sapiens) (UniProt P62993); remark: listed apart in the source
[31] = target: BLK (Homo sapiens) (UniProt P51451); remark: listed apart in the source
[32] = target: PIK3R2-NC (Homo sapiens) (UniProt O00459); remark: listed apart in the source
[33] = target: ABL2 (Homo sapiens) (UniProt P42684); remark: listed apart in the source
[34] = target: PIK3R2-N (Homo sapiens) (UniProt O00459); remark: listed apart in the source
[35] = target: PIK3R1-N (Homo sapiens) (UniProt P27986)
[36] = target: PLCG2-NC (Homo sapiens) (UniProt P16885)
[37] = target: RASA1-N (Homo sapiens) (UniProt P20936); remark: listed apart in the source
[38] = target: GRB10 (Homo sapiens) (UniProt Q13322)
[39] = target: NCK2 (Homo sapiens) (UniProt O43639); remark: listed apart in the source
[40] = target: ITK (Homo sapiens) (UniProt Q08881); remark: listed apart in the source
[41] = target: ABL2 (Homo sapiens) (UniProt P42684); remark: listed apart in the source
[42] = target: PIK3R3-NC (Homo sapiens) (UniProt Q92569); remark: listed apart in the source
[43] = target: SHC1-PTB (Homo sapiens) (UniProt P29353); remark: listed apart in the source
[44] = target: NCK2 (Homo sapiens) (UniProt O43639); remark: listed apart in the source
[45] = target: ABL2 (Homo sapiens) (UniProt P42684); remark: listed apart in the source
[46] = target: ABL1 (Homo sapiens) (UniProt P00519); remark: listed apart in the source
[47] = target: SHC1-PTB (Homo sapiens) (UniProt P29353); remark: listed apart in the source

Sequence of GRB2 (Homo sapiens) (P62993 55-157): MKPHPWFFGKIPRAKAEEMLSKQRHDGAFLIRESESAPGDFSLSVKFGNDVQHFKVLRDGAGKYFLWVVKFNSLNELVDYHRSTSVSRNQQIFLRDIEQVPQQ
Sequence of ABL2 (Homo sapiens) (P42684 168-268): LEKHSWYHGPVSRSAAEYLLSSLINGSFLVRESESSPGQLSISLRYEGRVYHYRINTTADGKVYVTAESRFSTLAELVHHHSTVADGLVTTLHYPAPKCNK
Sequence of NCK2 (Homo sapiens) (O43639 280-380): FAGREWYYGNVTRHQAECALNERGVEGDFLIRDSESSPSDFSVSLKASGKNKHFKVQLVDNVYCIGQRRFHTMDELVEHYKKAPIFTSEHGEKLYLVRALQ
Sequence of SHC1-PTB (Homo sapiens) (P29353 483-583): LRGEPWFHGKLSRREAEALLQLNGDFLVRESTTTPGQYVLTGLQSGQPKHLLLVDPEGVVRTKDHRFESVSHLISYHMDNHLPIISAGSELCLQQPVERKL
Sequence of ABL1 (Homo sapiens) (P00519 122-222): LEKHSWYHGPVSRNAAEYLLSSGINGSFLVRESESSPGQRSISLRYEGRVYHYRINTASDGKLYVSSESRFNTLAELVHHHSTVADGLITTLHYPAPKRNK
Sequence of VAV2 (Homo sapiens) (P52735 668-772): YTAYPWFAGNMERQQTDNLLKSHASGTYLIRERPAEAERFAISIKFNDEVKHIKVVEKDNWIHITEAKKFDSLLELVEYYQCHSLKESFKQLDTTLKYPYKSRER
Sequence of PIK3R2-NC (Homo sapiens) (O00459 325-721): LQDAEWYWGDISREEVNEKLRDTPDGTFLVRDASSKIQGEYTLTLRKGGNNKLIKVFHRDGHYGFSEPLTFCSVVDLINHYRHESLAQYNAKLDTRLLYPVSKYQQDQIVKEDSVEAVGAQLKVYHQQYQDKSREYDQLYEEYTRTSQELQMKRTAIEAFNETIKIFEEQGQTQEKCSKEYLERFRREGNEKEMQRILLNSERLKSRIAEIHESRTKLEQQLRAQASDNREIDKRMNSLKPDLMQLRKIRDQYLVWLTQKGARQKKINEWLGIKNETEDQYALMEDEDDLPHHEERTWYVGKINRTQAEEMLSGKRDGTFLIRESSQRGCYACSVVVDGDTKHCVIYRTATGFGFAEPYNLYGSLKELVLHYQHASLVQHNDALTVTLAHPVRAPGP
Sequence of PIK3R2-N (Homo sapiens) (O00459 325-721): as above
Sequence of BLK (Homo sapiens) (P51451 119-225): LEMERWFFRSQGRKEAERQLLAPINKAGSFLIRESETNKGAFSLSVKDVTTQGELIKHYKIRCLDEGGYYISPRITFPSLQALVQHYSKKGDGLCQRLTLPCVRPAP
Sequence of ITK (Homo sapiens) (Q08881 234-343): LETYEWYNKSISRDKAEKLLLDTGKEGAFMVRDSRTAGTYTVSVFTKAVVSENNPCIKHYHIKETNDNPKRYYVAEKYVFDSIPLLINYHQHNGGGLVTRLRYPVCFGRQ
Sequence of RASA1-N (Homo sapiens) (P20936 176-446): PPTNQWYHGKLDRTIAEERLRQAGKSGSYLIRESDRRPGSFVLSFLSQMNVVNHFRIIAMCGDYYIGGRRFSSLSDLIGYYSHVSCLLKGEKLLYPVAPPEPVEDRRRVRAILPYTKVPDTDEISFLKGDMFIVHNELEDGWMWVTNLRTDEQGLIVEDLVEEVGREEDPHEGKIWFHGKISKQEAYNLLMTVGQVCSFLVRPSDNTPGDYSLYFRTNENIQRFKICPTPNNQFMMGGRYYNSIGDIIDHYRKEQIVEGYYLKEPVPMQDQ
Sequence of PIK3R1-NC (Homo sapiens) (P27986 328-723): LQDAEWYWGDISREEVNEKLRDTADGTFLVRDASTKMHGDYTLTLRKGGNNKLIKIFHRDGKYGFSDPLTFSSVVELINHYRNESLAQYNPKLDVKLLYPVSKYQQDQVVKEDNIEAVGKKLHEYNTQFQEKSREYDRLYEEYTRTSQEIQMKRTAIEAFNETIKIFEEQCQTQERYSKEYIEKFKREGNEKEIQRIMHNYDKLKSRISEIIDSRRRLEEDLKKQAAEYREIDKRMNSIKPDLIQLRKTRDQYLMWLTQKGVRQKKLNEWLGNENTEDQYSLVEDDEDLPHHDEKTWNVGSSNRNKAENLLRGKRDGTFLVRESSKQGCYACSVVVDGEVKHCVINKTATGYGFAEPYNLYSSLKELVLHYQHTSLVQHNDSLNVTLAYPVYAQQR
Sequence of GRB7 (Homo sapiens) (Q14451 426-532): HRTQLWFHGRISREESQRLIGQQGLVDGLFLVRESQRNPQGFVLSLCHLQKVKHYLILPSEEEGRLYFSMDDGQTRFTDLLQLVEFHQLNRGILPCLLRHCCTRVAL
Sequence of ZAP70-NC (Homo sapiens) (P43403 5-259): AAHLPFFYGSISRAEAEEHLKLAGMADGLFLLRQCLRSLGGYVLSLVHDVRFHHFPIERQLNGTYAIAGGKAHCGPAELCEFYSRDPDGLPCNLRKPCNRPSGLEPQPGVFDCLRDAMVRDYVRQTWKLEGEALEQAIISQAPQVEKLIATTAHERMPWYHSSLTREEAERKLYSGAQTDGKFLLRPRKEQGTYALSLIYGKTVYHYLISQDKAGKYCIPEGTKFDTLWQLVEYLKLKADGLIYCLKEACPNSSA
Sequence of GRB10 (Homo sapiens) (Q13322 488-579): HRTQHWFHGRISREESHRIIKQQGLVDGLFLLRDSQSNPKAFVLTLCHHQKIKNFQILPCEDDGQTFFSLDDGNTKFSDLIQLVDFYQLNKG
Sequence of YES1 (Homo sapiens) (P07947 153-260): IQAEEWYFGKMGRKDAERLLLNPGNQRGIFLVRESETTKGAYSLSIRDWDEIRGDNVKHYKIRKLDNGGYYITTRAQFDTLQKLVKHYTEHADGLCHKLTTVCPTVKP
Sequence of PLCG2-NC (Homo sapiens) (P16885 527-740): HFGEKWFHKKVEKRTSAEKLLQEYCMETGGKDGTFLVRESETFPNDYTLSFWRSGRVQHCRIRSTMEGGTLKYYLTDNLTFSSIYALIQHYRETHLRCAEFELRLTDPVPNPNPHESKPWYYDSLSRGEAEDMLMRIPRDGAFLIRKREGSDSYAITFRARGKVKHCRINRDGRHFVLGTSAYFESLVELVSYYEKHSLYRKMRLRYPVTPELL
Sequence of PIK3R1-N (Homo sapiens) (P27986 328-723): as the sequence (P27986 328-723) above

…pYLNTVQPTd
apparent Kd (screen) [1]: 0.724 µM
apparent Kd (screen) [2]: 0.12 µM
apparent Kd (screen) [3]: 1.76 µM
apparent Kd (screen) [4]: 0.373 µM
apparent Kd (screen) [5]: 0.838 µM
apparent Kd (screen) [6]: 0.326 µM
apparent Kd (screen) [7]: 0.422 µM
apparent Kd (screen) [8]: 0.133 µM
apparent Kd (screen) [9]: 1.69 µM
apparent Kd (screen) [10]: 0.763 µM
apparent Kd (screen) [11]: 0.173 µM
apparent Kd (screen) [12]: 1.57 µM
apparent Kd (screen) [13]: 1.14 µM
apparent Kd (screen) [14]: 0.085 µM
apparent Kd (screen) [15]: 0.857 µM
apparent Kd (screen) [16]: 0.388 µM

…pYHAEGGKVd
apparent Kd (screen) [17]: 2 µM
apparent Kd (screen) [18]: 1.71 µM
apparent Kd (screen) [19]: 1.08 µM

…pYINQSVPKd
apparent Kd (screen) [20]: 1.79 µM
apparent Kd (screen) [21]: 0.507 µM
apparent Kd (screen) [22]: 1.99 µM
apparent Kd (screen) [23]: 1.02 µM
apparent Kd (screen) [24]: 0.908 µM
apparent Kd (screen) [25]: 0.916 µM
apparent Kd (screen) [26]: 0.337 µM
apparent Kd (screen) [27]: 0.542 µM
apparent Kd (screen) [28]: 1.92 µM
apparent Kd (screen) [29]: 0.67 µM
apparent Kd (screen) [30]: 0.198 µM
apparent Kd (screen) [31]: 0.3 µM
apparent Kd (screen) [32]: 1.41 µM
apparent Kd (screen) [33]: 0.152 µM
apparent Kd (screen) [34]: 0.453 µM
apparent Kd (screen) [35]: 1.07 µM
apparent Kd (screen) [36]: 1.63 µM
apparent Kd (screen) [37]: 0.18 µM
apparent Kd (screen) [38]: 1.3 µM
apparent Kd (screen) [39]: 1.1 µM
apparent Kd (screen) [40]: 0.219 µM

…pYHNASNGPd
apparent Kd (screen) [41]: 0.035 µM
apparent Kd (screen) [42]: 2 µM
apparent Kd (screen) [43]: 0.717 µM
apparent Kd (screen) [44]: 2 µM
apparent Kd (screen) [45]: 0.755 µM
apparent Kd (screen) [46]: 1.82 µM
apparent Kd (screen) [47]: 0.277 µM
